Drawing on PMC4930482, this text covers percent of parent for 3 substances.

What all share (assay): coIP
The target in one experiment is HA-RNF26 (UniProt Q9BY78). To be noted: n = 3; parent: est. 100; read off a plot.
For experiment [1], the target named is RNF26, wild type (coIP of Figures 5A and 5B) (UniProt Q9BY78). As to conditions: HEK293T cells; n = 3; parent: est. 100; read off a plot.
The target in a further experiment is RFP-RNF26 (UniProt Q9BY78). As to conditions: n = 3; parent: est. 100; read off a plot.

Consider GFP-TAX1BP1 (from UniProt Q86VP1) UBZ2*, for which the percent of parent with HA-RNF26 is 39 % Co-IP.

For the substance “TOLLIP, wild type (coIP of Figure 5B) (from UniProt Q9H0E2) CUE*”, the percent of parent in experiment [1] worked out at 13 % Co-IP.

For FLAG-EPS15 (from UniProt P42566) UIM*, in the experiment with RFP-RNF26, the percent of parent stood at 14 % Co-IP.
